Assay results published in paper doi:10.1101/2021.07.08.451649 (bioRxiv, 2021).

Molecular target: SARS-CoV-2 HexaPro spike glycoprotein (SARS-CoV-2, ancestral (Wuhan-Hu-1), …, stabilised)
Experiment: cryo-EM structure

B1: PVI.V6-14 Fab (Fab, V domains shown)
VH: QVQLQESGPGLVKPSETLSLTCTVSGGSISSSSYYWGWIRQPPGKGLEWIGSIYYSGSTYYNPSLKSRVTISVDTSKNQFSLKLSSVTAADTAVYYCARCRPEYYFGSGSYLDFDY
VL: DIQMTQSPSSVSASVGDRVTITCRASQGISSWLAWYQQKPGKAPKLLIYAASSLQSGVPSRFSGSGSGTDFTLTISSLQPEDFATYYCQQANSFPLTFGGGTKVEIK
stoichiometry N: 2 Fabs per spike trimer
